Results on six molecules are retold here after patent publication US11833164B2, “Methods of treating Fabry disease in patients having a mutation in the GLA gene” (Amicus Therapeutics, Inc., priority 2019, dated 2023).

The test relates to mutant form of α-Gal A expressed in HEK-293 cells. The test is described as follows: HEK assay (GLP HEK / Migalastat Amenability Assay): α-Gal A activity in lysates of transiently transfected HEK-293 cells incubated with or without 10 μM migalastat. The class given is cell-based, human. The note with it: for Absolute increase (% WT) / Relative increase: 10 μM migalastat versus baseline; for Baseline α-Gal A activity (% WT): absence of migalastat; for Baseline α-Gal A activity (% WT) / 10 μM migalastat α-Gal A activity (% WT): percentage of baseline wild-type α-Gal A activity; for Baseline α-Gal A activity (% WT) / Baseline α-Gal A activity / 10 μM migalastat α-Gal A activity / 10 μM migalastat α-Gal A activity (% WT): mean ± SEM; for Baseline α-Gal A activity / 10 μM migalastat α-Gal A activity: lysates of HEK-293 cells transiently transfected with the mutant form; for Baseline α-Gal A activity: incubated 5 days in absence of migalastat; for 10 μM migalastat α-Gal A activity: incubated 5 days with 10 μM migalastat; for 10 μM migalastat α-Gal A activity (% WT): with 10 μM migalastat, 5 days. In short, it runs like this: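 Activity reported as 4-MU released (nmol/mg/hr), mean±SEM, from lysates of transiently transfected HEK-293 cells expressing mutant α-Gal A, cultured with or without 10 μM migalastat.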

B1: L331H (protein)
chain: MQLRNPELHLGCALALRFLALVSWDIPGARALDNGLARTPTMGWLHWERFMCNLDCQEEPDSCISEKLFMEMAELMVSEGWKDAGYEYLCIDDCWMAPQRDSEGRLQADPQRFPHGIRQLANYVHSKGLKLGIYADVGNKTCAGFPGSFGYYDIDAQTFADWGVDLLKFDGCYCDSLENLADGYKHMSLALNRTGRSIVYSCEWPLYMWPFQKPNYTEIRQYCNHWRNFADIDDSWKSIKSILDWTSFNQERIVDVAGPGGWNDPDMLVIGNFGLSWNQQVTQMALWAIMAAPLFMSNDLRHISPQAKALLQDKDVIAINQDPLGKQGYQHRQGDNFEVWERPLSGLAWAVAMINRQEIGGPRSYTIAVASLGKGVACNPACFITQLLPVKRKLGFYEWTSRLRSHINPTGTVLLQLENTMQMSLKDLL
B1: the “Absolute increase (% WT)” value turned out to be 25.9 % WT, the Relative increase is listed as 1.6, the “Baseline α-Gal A activity (% WT)” value stood at 42 ± 3.2 % WT and the “Baseline α-Gal A activity” value came out at 11743 ± 634 nmol/mg/h. Also, the “10 μM migalastat α-Gal A activity” value is 19003 ± 791 nmol/mg/h and the “10 μM migalastat α-Gal A activity (% WT)” value worked out at 67.9 ± 4.3 % WT.

B2: L331P (protein)
chain: MQLRNPELHLGCALALRFLALVSWDIPGARALDNGLARTPTMGWLHWERFMCNLDCQEEPDSCISEKLFMEMAELMVSEGWKDAGYEYLCIDDCWMAPQRDSEGRLQADPQRFPHGIRQLANYVHSKGLKLGIYADVGNKTCAGFPGSFGYYDIDAQTFADWGVDLLKFDGCYCDSLENLADGYKHMSLALNRTGRSIVYSCEWPLYMWPFQKPNYTEIRQYCNHWRNFADIDDSWKSIKSILDWTSFNQERIVDVAGPGGWNDPDMLVIGNFGLSWNQQVTQMALWAIMAAPLFMSNDLRHISPQAKALLQDKDVIAINQDPLGKQGYQPRQGDNFEVWERPLSGLAWAVAMINRQEIGGPRSYTIAVASLGKGVACNPACFITQLLPVKRKLGFYEWTSRLRSHINPTGTVLLQLENTMQMSLKDLL
With B2, the “Absolute increase (% WT)” value is on record as 3.1 % WT, the Relative increase is listed as 6.5, the “Baseline α-Gal A activity (% WT)” value is given as 0.6 ± 0.1 % WT and the “Baseline α-Gal A activity” value worked out at 157 ± 20 nmol/mg/h. For the same molecule, the “10 μM migalastat α-Gal A activity” value was determined as 1029 ± 32 nmol/mg/h and the “10 μM migalastat α-Gal A activity (% WT)” value is on record as 3.7 ± 0.2 % WT.

B3: L331V (protein)
chain: MQLRNPELHLGCALALRFLALVSWDIPGARALDNGLARTPTMGWLHWERFMCNLDCQEEPDSCISEKLFMEMAELMVSEGWKDAGYEYLCIDDCWMAPQRDSEGRLQADPQRFPHGIRQLANYVHSKGLKLGIYADVGNKTCAGFPGSFGYYDIDAQTFADWGVDLLKFDGCYCDSLENLADGYKHMSLALNRTGRSIVYSCEWPLYMWPFQKPNYTEIRQYCNHWRNFADIDDSWKSIKSILDWTSFNQERIVDVAGPGGWNDPDMLVIGNFGLSWNQQVTQMALWAIMAAPLFMSNDLRHISPQAKALLQDKDVIAINQDPLGKQGYQVRQGDNFEVWERPLSGLAWAVAMINRQEIGGPRSYTIAVASLGKGVACNPACFITQLLPVKRKLGFYEWTSRLRSHINPTGTVLLQLENTMQMSLKDLL
For B3, the “Absolute increase (% WT)” value is 28.0 % WT, the Relative increase is recorded as 1.3, the “Baseline α-Gal A activity (% WT)” value is listed as 89.4 ± 4.5 % WT and the “Baseline α-Gal A activity” value worked out at 25163 ± 801 nmol/mg/h. In addition, the “10 μM migalastat α-Gal A activity” value amounted to 33050 ± 967 nmol/mg/h and the “10 μM migalastat α-Gal A activity (% WT)” value is 117.4 ± 5.6 % WT.

B4: L331R (protein)
chain: MQLRNPELHLGCALALRFLALVSWDIPGARALDNGLARTPTMGWLHWERFMCNLDCQEEPDSCISEKLFMEMAELMVSEGWKDAGYEYLCIDDCWMAPQRDSEGRLQADPQRFPHGIRQLANYVHSKGLKLGIYADVGNKTCAGFPGSFGYYDIDAQTFADWGVDLLKFDGCYCDSLENLADGYKHMSLALNRTGRSIVYSCEWPLYMWPFQKPNYTEIRQYCNHWRNFADIDDSWKSIKSILDWTSFNQERIVDVAGPGGWNDPDMLVIGNFGLSWNQQVTQMALWAIMAAPLFMSNDLRHISPQAKALLQDKDVIAINQDPLGKQGYQRRQGDNFEVWERPLSGLAWAVAMINRQEIGGPRSYTIAVASLGKGVACNPACFITQLLPVKRKLGFYEWTSRLRSHINPTGTVLLQLENTMQMSLKDLL
For the molecule B4, the “Absolute increase (% WT)” value is listed as 23.3 % WT, the Relative increase is 1.6, the “Baseline α-Gal A activity (% WT)” value is 33.2 ± 1.5 % WT and the “Baseline α-Gal A activity” value was found to be 9725 ± 634 nmol/mg/h. Also, the “10 μM migalastat α-Gal A activity” value came to 15841 ± 639 nmol/mg/h and the “10 μM migalastat α-Gal A activity (% WT)” value worked out at 56.5 ± 3.2 % WT.

B5: R332I (protein)
chain: MQLRNPELHLGCALALRFLALVSWDIPGARALDNGLARTPTMGWLHWERFMCNLDCQEEPDSCISEKLFMEMAELMVSEGWKDAGYEYLCIDDCWMAPQRDSEGRLQADPQRFPHGIRQLANYVHSKGLKLGIYADVGNKTCAGFPGSFGYYDIDAQTFADWGVDLLKFDGCYCDSLENLADGYKHMSLALNRTGRSIVYSCEWPLYMWPFQKPNYTEIRQYCNHWRNFADIDDSWKSIKSILDWTSFNQERIVDVAGPGGWNDPDMLVIGNFGLSWNQQVTQMALWAIMAAPLFMSNDLRHISPQAKALLQDKDVIAINQDPLGKQGYQLIQGDNFEVWERPLSGLAWAVAMINRQEIGGPRSYTIAVASLGKGVACNPACFITQLLPVKRKLGFYEWTSRLRSHINPTGTVLLQLENTMQMSLKDLL
B5: the “Absolute increase (% WT)” value amounted to 43.2 % WT, the Relative increase is given as 1.7, the “Baseline α-Gal A activity (% WT)” value was 63.3 ± 4.5 % WT and the “Baseline α-Gal A activity” value worked out at 24614 ± 1678 nmol/mg/h. The “10 μM migalastat α-Gal A activity” value is 41550 ± 2461 nmol/mg/h and the “10 μM migalastat α-Gal A activity (% WT)” value was determined as 106.6 ± 6.4 % WT.

B6: R332G (protein)
chain: MQLRNPELHLGCALALRFLALVSWDIPGARALDNGLARTPTMGWLHWERFMCNLDCQEEPDSCISEKLFMEMAELMVSEGWKDAGYEYLCIDDCWMAPQRDSEGRLQADPQRFPHGIRQLANYVHSKGLKLGIYADVGNKTCAGFPGSFGYYDIDAQTFADWGVDLLKFDGCYCDSLENLADGYKHMSLALNRTGRSIVYSCEWPLYMWPFQKPNYTEIRQYCNHWRNFADIDDSWKSIKSILDWTSFNQERIVDVAGPGGWNDPDMLVIGNFGLSWNQQVTQMALWAIMAAPLFMSNDLRHISPQAKALLQDKDVIAINQDPLGKQGYQLGQGDNFEVWERPLSGLAWAVAMINRQEIGGPRSYTIAVASLGKGVACNPACFITQLLPVKRKLGFYEWTSRLRSHINPTGTVLLQLENTMQMSLKDLL
Consider B6, for which the “Absolute increase (% WT)” value stood at 23.4 % WT, the Relative increase is recorded as 1.3, the “Baseline α-Gal A activity (% WT)” value stood at 78.8 ± 2.7 % WT and the “Baseline α-Gal A activity” value was found to be 33043 ± 1431 nmol/mg/h. The “10 μM migalastat α-Gal A activity” value is 42737 ± 1959 nmol/mg/h and the “10 μM migalastat α-Gal A activity (% WT)” value amounted to 102.3 ± 4.6 % WT.
